Data on one molecule can be found in PMC3982999 (Molecular Biology of the Cell, 2014).

This assay concerns the target ubiquitin agarose (UniProt P0CG48 1-76, linked to agarose beads). As to the kind of experiment: pull-down.

B1: GST-spartin 1-408 (domain or fragment)
chain: MEQEPQNGEPAEIKIIREAYKKAFLFVNKGLNTDELGQKEEAKNYYKQGIGHLLRGISISSKESEHTGPGWESARQMQQKMKETLQNVRTRLEILEKGLATSLQNDLQEVPKLYPEFPPKDMCEKLPEPQSFSSAPQHAEVNGNTSTPSAGAVAAPASLSLPSQSCPAEAPPAYTPQAAEGHYTVSYGTDSGEFSSVGEEFYRNHSQPPPLETLGLDADELILIPNGVQIFFVNPAGEVSAPSYPGYLRIVRFLDNSLDTVLNRPPGFLQVCDWLYPLVPDRSPVLKCTAGAYMFPDTMLQAAGCFVGVVLSSELPEDDRELFEDLLRQMSDLRLQANWNRAEEENEFQIPGRTRPSSDQLKEASGTDVKQLDQGNKDVRHKGKRGKRAKDTSSEEVNLSHIVPCEPV
Regarding B1, the binding result is given as “binds”.
